Data: IntAct's records for PubMed 20639899

B1: E1B 55 kDa protein (Human adenovirus C serotype 5 (HAdV-5)), P03243-1 (parent)
chain: MERRNPSERGVPAGFSGHASVESGCETQESPATVVFRPPGDNTDGGAAAAAGGSQAAAAGAEPMEPESRPGPSGMNVVQVAELYPELRRILTITEDGQGLKGVKRERGACEATEEARNLAFSLMTRHRPECITFQQIKDNCANELDLLAQKYSIEQLTTYWLQPGDDFEEAIRVYAKVALRPDCKYKISKLVNIRNCCYISGNGAEVEIDTEDRVAFRCSMINMWPGVLGMDGVVIMNVRFTGPNFSGTVFLANTNLILHGVSFYGFNNTCVEAWTDVRVRGCAFYCCWKGVVCRPKSRASIKKCLFERCTLGILSEGNSRVRHNVASDCGCFMLVKSVAVIKHNMVCGNCEDRASQMLTCSDGNCHLLKTIHVASHSRKAWPVFEHNILTRCSLHLGNRRGVFLPYQCNLSHTKILLEPESMSKVNLNGVFDMTMKIWKVLRYDETRTRCRPCECGGKHIRNQPVMLDVTEELRPDHLVLACTRAEFGSSDEDTD

Variants of: B1
Conditions: with PML

Variant	effect of a mutation on the interaction
K104R	disrupting interaction
V103D	disrupting interaction

Variants of: B1
Conditions: with pml_human PML

Variant	effect of a mutation on the interaction
K104R	disrupting interaction
